B1: soluble recombinant megalin M2 fragment (amino acids 1024-1429 of human LRP2/megalin, C-terminal 6x His tag) (receptor)
chain: EQCGLFSFPCKNGRCVPNYYLCDGVDDCHDNSDEQLCGTLNNTCSSSAFTCGHGECIPAHWRCDKRNDCVDGSDEHNCPTHAPASCLDTQYTCDNHQCISKNWVCDTDNDCGDGSDEKNCNSTETCQPSQFNCPNHRCIDLSFVCDGDKDCVDGSDEVGCVLNCTASQFKCASGDKCIGVTNRCDGVFDCSDNSDEAGCPTRPPGMCHSDEFQCQEDGICIPNFWECDGHPDCLYGSDEHNACVPKTCPSSYFHCDNGNCIHRAWLCDRDNDCGDMSDEKDCPTQPFRCPSWQWQCLGHNICVNLSVVCDGIFDCPNGTDESPLCNGNSCSDFNGGCTHECVQEPFGAKCLCPLGFLLANDSKTCEDIDECDILGSCSQHCYNMRGSFRCSCDTGYMLESDGRTCKHHHHHH
notes: Expressed in and secreted by HEK cells, with the signal peptide removed; It tends to dimerise and is the fragment most easily dissociated to monomer; also called E1024-K1429
B3: complex of vitamin D binding protein with 25-hydroxyvitamin D3 (DBP:25(OH)D3) (ligand, human, UniProt P02774 17-474, looked up)
chain: LERGRDYEKNKVCKEFSHLGKEDFTSLSLVLYSRKFPSGTFEQVSQLVKEVVSLTEACCAEGADPDCYDTRTSALSAKSCESNSPFPVHPGTAECCTKEGLERKLCMAALKHQPQEFPTYVEPTNDEICEAFRKDPKEYANQFMWEYSTNYGQAPLSLLVSYTKSYLSMVGSCCTSASPTVCFLKERLQLKHLSLLTTLSNRVCSQYAAYGEKKSRLSNLIKLAQKVPTADLEDVLPLAEDITNILSKCCESASEDCMAKELPEHTVKLCDNLSTKNSKFEDCCQEKTAMDVFVCTYFMPAAQLPELPDVELPTNKDVCDPGNTKVMDKYTFELSRRTHLPEVFLSKVLEPTLKSLGECCDVEDSTTCFNAKGPLLKKELSSFIDKGQELCADYSENTFTEYKKKLAERLKAKLPDATPTELAKLVNKHSDFASNCCSINSPPLYCDSEIDAELKNIL
notes: Same protein as m4, occupied by the small molecule 25(OH)D3; Both are treated as this one entry; also called DBP:VD3; DBP/VD3
B4: vitamin D binding protein (DBP) alone, without added vitamin D metabolite (ligand, human, UniProt P02774 17-474, looked up)
chain: LERGRDYEKNKVCKEFSHLGKEDFTSLSLVLYSRKFPSGTFEQVSQLVKEVVSLTEACCAEGADPDCYDTRTSALSAKSCESNSPFPVHPGTAECCTKEGLERKLCMAALKHQPQEFPTYVEPTNDEICEAFRKDPKEYANQFMWEYSTNYGQAPLSLLVSYTKSYLSMVGSCCTSASPTVCFLKERLQLKHLSLLTTLSNRVCSQYAAYGEKKSRLSNLIKLAQKVPTADLEDVLPLAEDITNILSKCCESASEDCMAKELPEHTVKLCDNLSTKNSKFEDCCQEKTAMDVFVCTYFMPAAQLPELPDVELPTNKDVCDPGNTKVMDKYTFELSRRTHLPEVFLSKVLEPTLKSLGECCDVEDSTTCFNAKGPLLKKELSSFIDKGQELCADYSENTFTEYKKKLAERLKAKLPDATPTELAKLVNKHSDFASNCCSINSPPLYCDSEIDAELKNIL
notes: also called apoprotein DBP; non-complexed DBP

Key:
[1] = target: B3; test: MST, NT-647-labelled DBP (50 nM) with VD3 (50 nM), megalin fragment titrated
[2] = target: B3; test: MST, NT-647-labelled DBP (50 nM) mixed with 25(OH)VD3 (37.8 nM), megalin M2 titrated
[3] = target: T1, complex of vitamin D binding protein with 24,25-dihydroxyvitamin D (DBP-24,25VD) (human, UniProt P02774 17-474); test: MST, NT-647-labelled DBP (50 nM) mixed with 24,25VD (37.8 nM), megalin M2 titrated
T1 construct: Same protein as m4; 50 nM NT-647-labelled DBP was mixed with 37.8 nM metabolite; also called DBP:24,25(OH)VD
T1 sequence (looked up): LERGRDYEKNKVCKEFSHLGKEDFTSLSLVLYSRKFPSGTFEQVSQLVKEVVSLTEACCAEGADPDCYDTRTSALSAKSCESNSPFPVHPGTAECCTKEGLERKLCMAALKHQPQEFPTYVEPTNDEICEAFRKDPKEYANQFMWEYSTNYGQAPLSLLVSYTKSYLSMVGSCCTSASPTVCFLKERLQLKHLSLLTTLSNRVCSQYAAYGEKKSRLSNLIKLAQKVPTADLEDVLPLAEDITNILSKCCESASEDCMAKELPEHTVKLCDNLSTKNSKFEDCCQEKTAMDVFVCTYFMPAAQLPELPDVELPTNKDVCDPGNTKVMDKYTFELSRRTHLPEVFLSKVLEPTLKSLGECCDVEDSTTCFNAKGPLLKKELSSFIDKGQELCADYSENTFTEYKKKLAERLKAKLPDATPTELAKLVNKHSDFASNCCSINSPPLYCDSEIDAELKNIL

[4] = target: T2, complex of vitamin D binding protein with the 3C-epimer of 25(OH)D3 (human, UniProt P02774 17-474); test: microscale thermophoresis; NT-647-labelled DBP (50 nM) mixed with the vitamin D metabolite (37.8 nM), here 3epi25(OH)VD3; purified megalin M2 titrated
T2 construct: Same protein as m4, occupied by the epimer; also called DBP:3-epi-25(OH)D3
T2 sequence (looked up): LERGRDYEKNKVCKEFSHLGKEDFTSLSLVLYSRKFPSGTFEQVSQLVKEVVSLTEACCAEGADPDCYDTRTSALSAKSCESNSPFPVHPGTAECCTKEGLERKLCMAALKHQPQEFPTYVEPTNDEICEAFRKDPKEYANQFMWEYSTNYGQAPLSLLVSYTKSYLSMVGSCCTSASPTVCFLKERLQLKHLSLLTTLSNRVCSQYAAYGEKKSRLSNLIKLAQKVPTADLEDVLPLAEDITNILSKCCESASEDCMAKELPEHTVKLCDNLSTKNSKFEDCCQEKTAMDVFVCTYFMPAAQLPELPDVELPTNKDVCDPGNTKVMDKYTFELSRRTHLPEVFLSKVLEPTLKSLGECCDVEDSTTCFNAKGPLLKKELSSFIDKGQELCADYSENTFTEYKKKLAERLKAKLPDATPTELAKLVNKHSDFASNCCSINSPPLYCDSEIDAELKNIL

[5] = target: T3, complex of vitamin D binding protein with 25-hydroxyvitamin D2 (DBP:25(OH)VD2) (human, UniProt P02774 17-474); test: MST, NT-647-labelled DBP (50 nM) mixed with 25(OH)VD2 (37.8 nM), megalin M2 titrated
T3 construct: Same protein as m4; 50 nM NT-647-labelled DBP was mixed with 37.8 nM metabolite; also called DBP-VD2
T3 sequence (looked up): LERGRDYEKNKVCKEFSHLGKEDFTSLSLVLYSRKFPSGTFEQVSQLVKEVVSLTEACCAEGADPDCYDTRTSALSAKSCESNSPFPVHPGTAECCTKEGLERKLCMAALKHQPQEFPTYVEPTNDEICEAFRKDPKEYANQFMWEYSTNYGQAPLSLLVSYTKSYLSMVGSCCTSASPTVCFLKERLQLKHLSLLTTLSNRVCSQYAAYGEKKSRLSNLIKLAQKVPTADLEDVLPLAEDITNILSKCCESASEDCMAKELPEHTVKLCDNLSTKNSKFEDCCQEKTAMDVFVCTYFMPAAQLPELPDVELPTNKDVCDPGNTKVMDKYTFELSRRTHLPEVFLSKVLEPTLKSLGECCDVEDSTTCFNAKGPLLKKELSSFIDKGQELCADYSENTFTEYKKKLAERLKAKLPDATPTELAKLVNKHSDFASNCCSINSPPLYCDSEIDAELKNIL

Human C1q = Human C1q (human, UniProt P02745 23-245; P02746 28-253; P02747 29-245); test: peptide array of megalin M2 region; major binding epitopes of megalin ligands
Human Albumin-His-tag = target: T4, Human Albumin-His-tag (human, UniProt P02768 25-609); test: as above
T4 construct: not shown: His-tag

[6] = target: B4; test: MST, NT-647-labelled DBP (50 nM), megalin fragment titrated, absence of 25-OH vitamin D3; microscale thermophoresis; NT-647-labelled DBP, purified soluble M2 titrated 0.488-1000 nmol/L; absence of 25-OH vitamin D3
[7] = target: B1; test: microscale thermophoresis; NT-647-labelled DBP mixed with 1,25(OH)VD3; purified megalin M2 titrated (set-up as in paragraph 103)
[8] = target: T5, soluble recombinant megalin M3 fragment (amino acids 2698 to 3192 of human LRP2/megalin, C-terminal 6x His … (human, UniProt P98164 2698-3192)); test: co-immunoprecipitation with lysate of HEK cells expressing M3; pull-down with anti-His antibody beads; Western blot with anti-DBP antibody
T5 construct: Expressed in HEK 293 cells and secreted, with the signal peptide removed; It tends to dimerise; also called E2698-R3192
T5 sequence: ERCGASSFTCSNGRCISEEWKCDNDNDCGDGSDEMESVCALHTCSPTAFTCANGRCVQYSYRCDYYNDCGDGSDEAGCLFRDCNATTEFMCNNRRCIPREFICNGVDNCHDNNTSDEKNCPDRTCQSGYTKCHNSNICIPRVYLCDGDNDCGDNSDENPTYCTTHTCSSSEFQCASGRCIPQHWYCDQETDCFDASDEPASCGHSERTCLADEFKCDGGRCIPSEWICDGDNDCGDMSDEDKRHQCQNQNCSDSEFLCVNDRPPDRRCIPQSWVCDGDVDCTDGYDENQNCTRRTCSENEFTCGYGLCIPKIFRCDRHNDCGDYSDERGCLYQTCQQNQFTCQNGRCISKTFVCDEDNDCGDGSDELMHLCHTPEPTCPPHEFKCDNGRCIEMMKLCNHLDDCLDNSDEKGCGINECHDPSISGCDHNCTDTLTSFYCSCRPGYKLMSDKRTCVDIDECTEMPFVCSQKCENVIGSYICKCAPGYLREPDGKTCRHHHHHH

[9] = target: B1; test: peptide array of megalin M2 region; major binding epitopes of megalin ligands

T4 sequence (P02768 25-609 limits assumed): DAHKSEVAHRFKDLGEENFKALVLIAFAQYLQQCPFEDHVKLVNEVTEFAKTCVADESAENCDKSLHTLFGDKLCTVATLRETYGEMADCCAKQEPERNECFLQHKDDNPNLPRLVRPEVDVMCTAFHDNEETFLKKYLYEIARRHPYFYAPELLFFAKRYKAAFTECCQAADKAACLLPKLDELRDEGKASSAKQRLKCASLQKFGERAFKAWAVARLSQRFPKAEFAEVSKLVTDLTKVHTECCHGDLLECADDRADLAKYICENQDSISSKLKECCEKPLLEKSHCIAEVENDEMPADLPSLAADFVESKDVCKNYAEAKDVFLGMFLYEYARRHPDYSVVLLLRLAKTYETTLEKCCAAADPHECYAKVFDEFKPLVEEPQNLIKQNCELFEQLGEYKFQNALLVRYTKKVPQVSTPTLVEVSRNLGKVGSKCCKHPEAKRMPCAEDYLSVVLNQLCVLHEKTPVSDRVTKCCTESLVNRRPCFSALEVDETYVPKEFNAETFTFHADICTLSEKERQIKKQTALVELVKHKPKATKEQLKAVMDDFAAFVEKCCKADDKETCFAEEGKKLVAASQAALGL
Sequence of Human C1q (P02745 23-245 limits assumed, chain 1 of 3): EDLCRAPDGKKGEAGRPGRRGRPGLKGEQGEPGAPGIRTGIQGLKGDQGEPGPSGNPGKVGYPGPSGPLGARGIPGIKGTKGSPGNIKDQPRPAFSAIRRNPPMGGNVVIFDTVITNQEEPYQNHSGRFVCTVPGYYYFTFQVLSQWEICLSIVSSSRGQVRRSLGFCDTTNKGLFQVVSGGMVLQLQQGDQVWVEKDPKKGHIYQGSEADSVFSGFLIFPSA
Sequence of Human C1q (P02746 28-253 limits assumed, chain 2 of 3): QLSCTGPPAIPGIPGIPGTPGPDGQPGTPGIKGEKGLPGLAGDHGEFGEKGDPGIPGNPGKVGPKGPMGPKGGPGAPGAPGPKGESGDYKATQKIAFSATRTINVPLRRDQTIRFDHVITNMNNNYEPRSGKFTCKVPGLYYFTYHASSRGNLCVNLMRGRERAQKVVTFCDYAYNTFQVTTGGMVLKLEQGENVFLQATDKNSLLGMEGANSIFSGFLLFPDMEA
Sequence of Human C1q (P02747 29-245 limits assumed, chain 3 of 3): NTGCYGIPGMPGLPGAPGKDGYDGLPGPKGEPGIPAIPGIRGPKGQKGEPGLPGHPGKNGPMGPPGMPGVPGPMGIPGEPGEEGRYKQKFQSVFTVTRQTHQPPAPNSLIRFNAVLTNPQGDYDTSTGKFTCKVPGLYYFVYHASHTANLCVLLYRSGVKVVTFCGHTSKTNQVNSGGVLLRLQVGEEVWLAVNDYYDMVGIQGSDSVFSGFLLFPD

Binder: B1
- Kd [1]: 23.7 nM
- Kd [2]: 33.7 nM
- Kd [3]: 171 nM
- Kd [4]: 5.86 nM
- Kd [5]: 160 nM
- binding result (Human C1q): binds
- binding result (Human Albumin-His-tag): binds
- Kd [6]: 134 nM

B2: DBP-1,25(OH)VD3 complex (ligand)
chain: LERGRDYEKNKVCKEFSHLGKEDFTSLSLVLYSRKFPSGTFEQVSQLVKEVVSLTEACCAEGADPDCYDTRTSALSAKSCESNSPFPVHPGTAECCTKEGLERKLCMAALKHQPQEFPTYVEPTNDEICEAFRKDPKEYANQFMWEYSTNYGQAPLSLLVSYTKSYLSMVGSCCTSASPTVCFLKERLQLKHLSLLTTLSNRVCSQYAAYGEKKSRLSNLIKLAQKVPTADLEDVLPLAEDITNILSKCCESASEDCMAKELPEHTVKLCDNLSTKNSKFEDCCQEKTAMDVFVCTYFMPAAQLPELPDVELPTNKDVCDPGNTKVMDKYTFELSRRTHLPEVFLSKVLEPTLKSLGECCDVEDSTTCFNAKGPLLKKELSSFIDKGQELCADYSENTFTEYKKKLAERLKAKLPDATPTELAKLVNKHSDFASNCCSINSPPLYCDSEIDAELKNIL
modifications: The protein carries the red fluorescent dye NT-647 (positions not stated). 1,25(OH)2 vitamin D3 is bound non-covalently and cannot be written in letters. It is a natural glycoprotein.
notes: also called DBP:1,25(OH)2D3
- Kd [7]: 18.1 nM

Binder: B3
- binding result [8]: no binding (tested: DBP 0,5 µg with VD3 0,2 µg)

Binder: B4
- binding result [8]: no binding (tested: DBP 0,5 µg)

B5: Human RAP (ligand, UniProt P30533 35-357, looked up)
chain: YSREKNQPKPSPKRESGEEFRMEKLNQLWEKAQRLHLPPVRLAELHADLKIQERDELAWKKLKLDGLDEDGEKEARLIRNLNVILAKYGLDGKKDARQVTSNSLSGTQEDGLDDPRLEKLWHKAKTSGKFSGEELDKLWREFLHHKEKVHEYNVLLETLSRTEEIHENVISPSDLSDIKGSVLHSRHTELKEKLRSINQGLDRLRRVSHQGYSTEAEFEEPRVIDLWDLAQSANLTDKELEAFREELKHFEAKIEKHNHYQKQLEIAHEKLRHAESVGDGERVSRSREKHALLEGRTKELGYTVKKHLQDLSGRISRARHNEL
- binding result [9]: binds
